Twelve sequences from the Immune Epitope Database (IEDB) can be followed below.

Assay [1] has as its target HLA-B*07:02. The experiment in a line: IEDB peptide-MHC binding, purified MHC/competitive/radioactivity; ≥ and ≤ were set here for values at or beyond the usual limits of such assays.
The target of another assay is HLA-A*02:01. The description is as above. To be noted: source organism: Plasmodium falciparum.
Assay [2] deals with HLA-B*07:02. As to the kind of experiment: IEDB peptide-MHC binding, purified MHC/competitive/radioactivity; filed as Kd, often an IC50 or EC50 that approximates it; ≥ and ≤ were set here for values at or beyond the usual limits of such assays. To be noted: source organism: Human immunodeficiency virus 1.
Setting [3] is: source organism: Human immunodeficiency virus 1.

By IC50 is commonly meant the point on the concentration scale where inhibition reaches its midpoint. Consider CPKVSFEPI, for which, in the assay with HLA-B*07:02 [1] (setting [3]), the IC50 came to 127 nM.
As for GLLGVVSTV, the IC50 in the assay with HLA-A*02:01 amounted to 24.3 nM.
As usually defined, the Kd is the constant that tells how readily two partners part at equilibrium. Take GPKVKQWPI: the Kd with HLA-B*07:02 [2] amounted to 5570 nM.
HPVHAGPIA: in the assay with HLA-B*07:02 [1] (setting [3]), the IC50 was determined as 57 nM.
As to ILSVSSFLFV, the IC50 in the assay with HLA-A*02:01 was found to be 208 nM.
In the case of IPIHYCAPA, the 50% inhibitory concentration (IC50) with HLA-B*07:02 [1] (setting [3]) came to 445 nM.
QPRAPIRPIPT: the 50% inhibitory concentration (IC50) with HLA-B*07:02 [1] (source organism: Human herpesvirus 4 strain B95-8) came to 110 nM.
Take RPPIFIRRL: the IC50 with HLA-B*07:02 [1] (source organism: human gammaherpesvirus 4) was 21 nM.
For the sequence TPGIRYQYNI, the Kd in the assay with HLA-B*07:02 [2] worked out at 8620 nM.
In the case of TPYAGEPAPF, the half-inhibitory concentration (IC50) in the assay with HLA-B*07:02 [1] (source organism: Plasmodium falciparum) is 31 nM.
Regarding WPLTEEKIKI, the Kd with HLA-B*07:02 [2] is 19400 nM.
As for YPLASLRSLF, the IC50 with HLA-B*07:02 [1] (setting [3]) came out at 408 nM.
